From patent EP3216458A1

Molecular target: Neuropilin-1 (Nrp-1), zebrafish (zebrafish) (UniProt Q8QFX6)
Test: cell-based or functional assay

UniProt Q8QFX6, sequence (Q8QFX6 20-923 limits assumed): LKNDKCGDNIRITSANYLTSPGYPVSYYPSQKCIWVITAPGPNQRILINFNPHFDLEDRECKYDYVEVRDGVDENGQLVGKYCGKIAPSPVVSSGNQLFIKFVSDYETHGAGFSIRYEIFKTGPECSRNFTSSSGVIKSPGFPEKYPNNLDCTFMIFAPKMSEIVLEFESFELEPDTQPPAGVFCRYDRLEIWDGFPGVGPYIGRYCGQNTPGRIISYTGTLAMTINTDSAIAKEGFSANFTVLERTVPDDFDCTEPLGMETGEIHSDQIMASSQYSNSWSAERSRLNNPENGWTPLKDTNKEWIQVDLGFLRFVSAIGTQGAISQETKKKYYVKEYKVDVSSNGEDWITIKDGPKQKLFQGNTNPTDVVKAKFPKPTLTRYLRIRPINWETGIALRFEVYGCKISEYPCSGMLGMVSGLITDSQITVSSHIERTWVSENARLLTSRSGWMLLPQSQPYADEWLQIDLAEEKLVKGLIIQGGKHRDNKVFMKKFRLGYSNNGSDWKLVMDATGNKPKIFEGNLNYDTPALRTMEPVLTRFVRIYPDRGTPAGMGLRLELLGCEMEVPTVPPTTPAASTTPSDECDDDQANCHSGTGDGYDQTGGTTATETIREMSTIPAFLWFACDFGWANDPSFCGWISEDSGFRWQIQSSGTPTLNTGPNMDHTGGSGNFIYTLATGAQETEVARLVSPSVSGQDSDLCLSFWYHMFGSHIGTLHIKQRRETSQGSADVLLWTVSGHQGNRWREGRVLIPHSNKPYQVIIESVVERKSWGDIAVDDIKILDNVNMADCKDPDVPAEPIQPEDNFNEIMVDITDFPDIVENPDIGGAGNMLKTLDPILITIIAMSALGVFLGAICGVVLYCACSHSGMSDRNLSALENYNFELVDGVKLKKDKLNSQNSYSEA

Rescue percentage (embryos with blood flow circulation and without pericardial edema after mRNA injection into vegfaa-/- zebrafish): 3%
Substance: Vegfaa-165 R165E (zebrafish VEGF-A isoform 165 with arginine 165 changed to glutamic acid) (ligand)
